B1: Cys: mutant aspartokinase 279 Ala→Cys, plasmid p399AKAC (p399AKACB) (protein, UniProt P26512 1-421, looked up, variant A279C)
Aspartokinase: MALVVQKYGGSSLESAERIRNVAERIVATKKAGNDVVVVCSAMGDTTDELLELAAAVNPVPPAREMDMLLTAGERISNALVAMAIESLGAEAQSFTGSQAGVLTTERHGNARIVDVTPGRVREALDEGKICIVAGFQGVNKETRDVTTLGRGGSDTTAVALAAALNADVCEIYSDVDGVYTADPRIVPNAQKLEKLSFEEMLELAAVGSKILVLRSVEYARAFNVPLRVRSSYSNDPGTLIAGSMEDIPVEEAVLTGVATDKSEAKVTVLGISDKPGECAKVFRALADAEINIDMVLQNVSSVEDGTTDITFTCPRSDGRRAMEILKKLQVQGNWTNVLYDDQVGKVSLVGAGMKSHPGVTAEFMEALRDVNVNIELISTSEIRISVLIREDDLDAAARALHEQFQLGGEDEAVVYAGTGR
B2: Val: mutant aspartokinase 279 Ala→Val, plasmid p399AKAV (p399AKAVB) (protein, UniProt P26512 1-421, looked up, variant A279V)
Aspartokinase: B1 Aspartokinase with C279V
B3: Tyr: mutant aspartokinase 279 Ala→Tyr, plasmid p399AKAY (p399AKAYB) (protein, UniProt P26512 1-421, looked up, variant A279Y)
Aspartokinase: B1 Aspartokinase with C279Y
B4: Phe: mutant aspartokinase 279 Ala→Phe, plasmid p399AKAF (p399AKAFB) (protein, UniProt P26512 1-421, looked up, variant A279F)
Aspartokinase: B1 Aspartokinase with C279F

Substitutions are numbered along the chain they refer to.

The test system of the first data set is aspartokinase. The data set is described as follows: Aspartokinase (AK) activity of cell-disrupted solutions of Corynebacterium glutamicum strains, with and without L-lysine/L-threonine. Type of data set: biochemical, Corynebacterium glutamicum (Brevibacterium lactofermentum). The settings on record: 2 mM lysine + threonine; plasmids introduced into AJ12036. The text has this: When a wild type strain is used as a donor for the DNA fragment containing the AK gene, a DNA fragment containing a wild type AK gene can be obtained. The DNA fragment containing the gene for AK in which synergistic feedback inhibition by L-lysine and L-threonine is substantially desensitized can be obtained by using a mutant strain in which synergistic feedback inhibition on the AK activity by L-lysine and L-threonine is substantially desensitized. The mutant strain can be obtained, for example, from a group of cells subjected to an ordinary mutation treatment, ultraviolet light irradiation, or a treatment with a mutating agent such as N-methyl-N'-nitro-N-nitrosoguanidine (NTG). The AK activity can be measured by using a method described in Miyajima, R. et al., The Journal of Biochemistry (1968), 63(2), 139-148.
Strains were prepared by introducing the wild type AK plasmid p399AKYB and the mutant AK plasmid p399AK9B respectively into AJ12036 strain (FERM P-7559) as a wild type strain of Corynebacterium glutamicum (Brevibacterium lactofermentum). The genes were introduced into Corynebacterium by means of an electric pulse method. The aspartokinase activity was measured for Corynebacterium glutamicum (Brevibacterium lactofermentum) AJ12036 strain as a host, AJ12690 strain harboring the wild type AK plasmid, and AJ12691 (FERM P12918) strain harboring the mutant AK plasmid. The activity was measured in accordance with an ordinary method (see Miyajima, R. et al., The Journal of Biochemistry (1968) 63(2), 139-148). […]
Strains were prepared by introducing 8 kinds of the plasmids shown in Table 3 into AJ12036 strain (FERM P-7559) as a wild type strain of Corynebacterium glutamicum (Brevibacterium lactofermentum) in the same manner as Example 3. The AK activity was measured for each of the strains. […] The desensitization degree of inhibition by lysine and/or threonine was similar to those in Example 6.
On to B1, for which the “2 mM Lys + Thr (desensitization degree of inhibition)” value is on record as 60.6%.

With B2, the “2 mM Lys + Thr (desensitization degree of inhibition)” value is on record as 75.5%.

Turning to B3, the “2 mM Lys + Thr (desensitization degree of inhibition)” value worked out at 32.2%.

As to B4, the “2 mM Lys + Thr (desensitization degree of inhibition)” value is recorded as 32.4%.

Still in this data set, the particulars now being: lysine 5 mM; plasmids introduced into AJ12036.
For the molecule B1, the “5 mM Lys (desensitization degree of inhibition)” value worked out at 66.5%.

On to B2, for which the “5 mM Lys (desensitization degree of inhibition)” value turned out to be 60.5%.

On to B3, for which the “5 mM Lys (desensitization degree of inhibition)” value was determined as 16.1%.

For the molecule B4, the “5 mM Lys (desensitization degree of inhibition)” value is 14.6%.

The same data set, now with this note: plasmids introduced into AJ12036; Table 5.
With B1, the Specific activity is reported as 267.0 mU/mg protein.

As to B2, the Specific activity is on record as 448.9 mU/mg protein.

In the case of B3, the Specific activity was 425.6 mU/mg protein.

Regarding B4, the Specific activity worked out at 447.7 mU/mg protein.

The same data set, now with this note: threonine 5 mM; plasmids introduced into AJ12036.
Regarding B1, the “5 mM Thr (desensitization degree of inhibition)” value came out at 135.7%.

On to B2, for which the “5 mM Thr (desensitization degree of inhibition)” value stood at 103.5%.

For the molecule B3, the “5 mM Thr (desensitization degree of inhibition)” value is 104.8%.

B4: the “5 mM Thr (desensitization degree of inhibition)” value is listed as 105.0%.

The test system of the next data set is Corynebacterium glutamicum (Brevibacterium lactofermentum) AJ12036. The data set is described as follows: L-lysine productivity evaluated by cultivation in production medium. The settings on record: plasmids introduced into AJ12036; cultivation as in Example 3. Type of data set: cell-based. Here is the method: The lysine productivity was evaluated by cultivation for the wild type strain AJ12036, the wild type AK plasmid-harboring strain AJ12690, and the mutant AK plasmid-harboring strain AJ12691 (FERM P-12918). The evaluation by cultivation was performed by inoculating the strains to a production medium (containing glucose 100 g, (NH4)2 SO4 55 g, KH2 PO4 1 g, MgSO4.7H2 O 1 g, soybean protein acid hydrolysate "Mamenou" (product of Ajinomoto Co., Ltd., trade name) 50 ml, FeSO4.7H2 O 10 mg, MnSO4.4H2 O 10 mg, nicotinic acid amide 5 mg, and CaCO3 50 g in 1 l of pure water, pH 8.0), and cultivating them with reciprocatory shaking at 31.5° C. for 72 hours. […] The plasmid-holding ratio upon completion of the cultivation was measured by using an index of chloramphenicol resistance as a drug resistance marker of the plasmid.
The lysine productivity was further evaluated by cultivation for the 9 kinds of these strains by using a method similar to that in Example 3.
The molecule B1 yielded a Lys--HCl of 13.41 g/L.

The molecule B2 came in with a Lys--HCl of 25.02 g/L.

With B3, the Lys--HCl came to 25.12 g/L.

On to B4, for which the Lys--HCl came out at 25.14 g/L.

In the next data set the test system is AK. The data set is described as follows: AK enzyme activity and inhibition by lysine/threonine in cell-free extracts of AK-deficient Escherichia coli Gif106M1 transformants. Type of data set: biochemical, Corynebacterium glutamicum. The settings on record: E. coli Gif106M1 cell-free extracts. The text has this:
Bacteriol. 112, 84-92 (1972), Theze, J. et al., J. […] It is known that most of genes of bacteria belonging to the genus Corynebacterium are expressed in Escherichia coli. In addition, the AK gene was ligated at a position downstream from lac promoter on pHSG399. Thus it was postulated that the gene could be expressed in Escherichia coli. […] Thus it was confirmed that AK from the bacteria belonging to the genus Corynebacterium was expressed and operated in cells of Escherichia coli. Subsequently, cell-free extracts were prepared from bacterial cells, and the enzyme activity of AK was measured. Upon measurement of the enzyme activity of AK, various concentrations of lysine and threonine were added to enzyme reaction solutions to investigate the degree of inhibition (FIG. 2). […] (Ki value: 0.4 mM→5.0 mM). […] Cell-free extracts were prepared, and enzymes were analyzed.
Consider B1, for which the “concerted inhibition by lysine+threonine” value was “enhanced” and the “inhibition by lysine alone as compared with the wild type” value is listed as “equivalent to that in the wild type”.

As to B3, the “inhibition by lysine alone as compared with the wild type” value was “enhanced”.

For the molecule B4, the “inhibition by lysine alone as compared with the wild type” value is listed as “enhanced”.

Still in this data set, the particulars now being: E. coli Gif106M1 cell-free extracts; Table 4.
B1 gave a Specific activity of 15.4 mU/mg protein.

B2: the Specific activity is 21.8 mU/mg protein.

B3 registered a Specific activity of 14.4 mU/mg protein.

As for B4, the Specific activity was 18.7 mU/mg protein.

Still in this data set, the particulars now being: lysine 5 mM+threonine 5 mM; activity without addition = 100%; E. coli Gif106M1 extracts.
Turning to B1, the “5 mM Lys + Thr (degree of desensitization of inhibition, activity-holding ratio)” value amounted to 17.0%.

B2: the “5 mM Lys + Thr (degree of desensitization of inhibition, activity-holding ratio)” value is 52.3%.

On to B3, for which the “5 mM Lys + Thr (degree of desensitization of inhibition, activity-holding ratio)” value is 19.4%.

Take B4: the “5 mM Lys + Thr (degree of desensitization of inhibition, activity-holding ratio)” value was 18.2%.

Staying with this data set, now noted: lysine 5 mM; activity without addition = 100%; E. coli Gif106M1 extracts.
In the case of B1, the “5 mM Lys (degree of desensitization of inhibition, activity-holding ratio)” value was determined as 56.3%.

Take B2: the “5 mM Lys (degree of desensitization of inhibition, activity-holding ratio)” value is given as 51.1%.

In the case of B3, the “5 mM Lys (degree of desensitization of inhibition, activity-holding ratio)” value stood at 14.4%.

As to B4, the “5 mM Lys (degree of desensitization of inhibition, activity-holding ratio)” value is reported as 12.1%.

Staying with this data set, now noted: threonine 5 mM; activity without addition = 100%; E. coli Gif106M1 extracts.
Regarding B1, the “5 mM Thr (degree of desensitization of inhibition, activity-holding ratio)” value was determined as 108.1%.

Take B2: the “5 mM Thr (degree of desensitization of inhibition, activity-holding ratio)” value is given as 98.3%.

Regarding B3, the “5 mM Thr (degree of desensitization of inhibition, activity-holding ratio)” value turned out to be 103.6%.

Consider B4, for which the “5 mM Thr (degree of desensitization of inhibition, activity-holding ratio)” value was determined as 103.0%.

The next data set has as its system AK. The data set is described as follows: Thermal stability of AK, treatment at 55° C. for 1.5 hour. Type of data set: biochemical, Corynebacterium glutamicum. The settings on record: FIG. 6. As for the experimental part:
The activity-holding ratio after a treatment at 55° C. for 90 minutes is indicated by %.
Thermal stability was investigated as an index of stability of the enzyme structure constructed by the introduction of mutation. The treatment condition was set at 55° C. for 1.5 hour in which the activity of the wild type AK was about 80%.
Take B1: the “thermal stability compared with the wild type” value is “higher stability than that of the wild type”.

With B2, the “thermal stability compared with the wild type” value was “highest stability”.

As to B3, the “thermal stability compared with the wild type” value is “higher stability than that of the wild type”.

B4: the “thermal stability compared with the wild type” value was “higher stability than that of the wild type”.

The values above are taken from patent publication US5688671A, “Mutant aspartokinase gene” (Ajinomoto Co., Inc., priority 1993, dated 1997).
